“Also recorded” adds a separate entry of the source.
T1: mouse FcγRIIb (Mus musculus, UniProt P08101)
T1 construct: purchased R&D Systems, Inc
T1 sequence (P08101 30-330): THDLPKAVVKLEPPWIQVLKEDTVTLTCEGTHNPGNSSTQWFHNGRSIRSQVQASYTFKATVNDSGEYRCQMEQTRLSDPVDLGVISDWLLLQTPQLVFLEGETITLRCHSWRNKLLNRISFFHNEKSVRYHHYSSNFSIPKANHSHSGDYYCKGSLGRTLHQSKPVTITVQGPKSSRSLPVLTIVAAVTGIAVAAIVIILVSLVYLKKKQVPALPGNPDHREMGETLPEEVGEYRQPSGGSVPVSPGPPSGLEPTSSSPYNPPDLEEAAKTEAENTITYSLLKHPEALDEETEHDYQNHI

T2: mouse FcγRIII (Mus musculus, UniProt P08508)
T2 construct: purchased R&D Systems, Inc
T2 sequence (P08508 31-261): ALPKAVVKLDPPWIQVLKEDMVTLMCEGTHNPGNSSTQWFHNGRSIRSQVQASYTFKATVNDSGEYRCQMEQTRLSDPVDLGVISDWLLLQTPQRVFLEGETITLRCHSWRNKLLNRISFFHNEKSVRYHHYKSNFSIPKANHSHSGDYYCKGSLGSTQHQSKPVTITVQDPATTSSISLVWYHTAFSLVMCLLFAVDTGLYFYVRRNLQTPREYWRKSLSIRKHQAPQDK

T3: mouse FcγRIV (Mus musculus, UniProt A0A0B4J1G0)
T3 construct: purchased R&D Systems, Inc
T3 sequence (A0A0B4J1G0 21-249): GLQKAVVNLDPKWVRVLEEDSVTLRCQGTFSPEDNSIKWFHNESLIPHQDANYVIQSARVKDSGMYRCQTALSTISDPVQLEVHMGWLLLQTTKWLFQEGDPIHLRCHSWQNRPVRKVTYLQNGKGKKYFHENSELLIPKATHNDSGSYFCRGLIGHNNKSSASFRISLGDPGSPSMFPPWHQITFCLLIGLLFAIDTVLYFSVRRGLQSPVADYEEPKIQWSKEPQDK

T4: mouse FcγRI (Mus musculus, UniProt P26151)
T4 construct: purchased R&D Systems, Inc
T4 sequence (P26151 25-404): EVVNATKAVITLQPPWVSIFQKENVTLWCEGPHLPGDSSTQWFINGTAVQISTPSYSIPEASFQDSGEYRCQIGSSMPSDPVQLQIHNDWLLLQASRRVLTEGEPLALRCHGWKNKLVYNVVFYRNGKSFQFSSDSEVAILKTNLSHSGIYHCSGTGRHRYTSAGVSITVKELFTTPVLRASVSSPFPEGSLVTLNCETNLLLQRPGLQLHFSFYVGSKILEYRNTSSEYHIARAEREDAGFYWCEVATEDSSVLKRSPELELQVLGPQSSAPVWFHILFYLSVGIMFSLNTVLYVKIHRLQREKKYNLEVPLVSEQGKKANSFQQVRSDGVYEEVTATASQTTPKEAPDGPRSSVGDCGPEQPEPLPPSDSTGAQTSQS


How the values were obtained:
Y16 cells [1] = assay: ADCC activity against Y16 cells with human PBMC effector cells (LDH release); assay type: cell-based, mouse; details: 4 hrs, 0.0001-1000 ng/mL (control antibodies 1000 ng/mL), FIG. 13
Experimental: The H7 recombinant chimeric antibodies prepared in Example 8 were evaluated for their ADCC activity against Y16 cells using frozen human peripheral blood mononuclear cells (PBMCs) (manufactured by AllCells) as effector cells. The frozen human PBMCs were shake-cultured (37° C., 5% CO2, overnight) in RPMI1640 medium containing 5% FBS. The Y16 cells (target cells) and the human PBMCs (effector cells) were washed with ADCC assay medium (RPIM1640 containing 5% dialyzed FBS) and adjusted to cell densities of 2×10^5 cells/mL and 3×10^6 cells/mL, respectively. The cells were washed twice with a medium and then suspended into cell densities of 4×10^5 cells/mL. Each chimeric antibody adjusted to a final concentration of 0.0001, 0.001, 0.01, 0.1, 1, 10, 100, or 1000 ng/mL, the target cells (2×10^4 cells/well), and the effector cells (5×10^5 cells/well) were added in this order at 50 μL/well to a 96-well U-bottom plate. The control antibodies used were the rtDNP-1 hIgG1 (DF) antibody (KM8808) and the rtDNP-1 hIgG1 (N297A) antibody (KM6161) of Example 10 adjusted to a final concentration of 1000 ng/mL. The plate was centrifuged (500 rpm, 5 min) and then left standing in an incubator (37° C., 5% CO2, 4 hrs). The plate was centrifuged (1500 rpm, 5 min) to recover a supernatant at 50 μL/well into a 96-well Flat-bottom plate (manufactured by Sumitomo Bakelite Co., Ltd.). Lactate dehydrogenase (LDH) activity in the supernatant was detected using CytoTox 96 Non-Radioactive Cytotoxicity Assay (manufactured by Promega Corp.). Absorbance at 490 nm was measured using a plate reader SPECTRA MAX 340 PC384 (manufactured by Molecular Devices, LLC). The ADCC activity (%) was calculated according to the following equation using background-corrected measurement values. Cytotoxicity=[[Absorbance of the sample]−[Absorbance derived from spontaneous release from the target cells and the effector cells]]/[[Absorbance derived from total release from the target cells]−[Absorbance derived from spontaneous release from the target cells]]

[2] = system: IL-33-induced vascular wall thickening (SMA-positive cells); assay: IL-33-induced vascular wall thickening, immunofluorescent staining of lung tissue; assay type: in vivo, mouse; details: IL-5+/+ mice, 100 μg antibody i.p. five times; lung tissue day 21
Experimental: (§1) In an experimental system similar to that of Example 3, in order to confirm the inhibitory effects of anti-IL-5R antibodies and anti-IL-5 neutralizing antibodies on vascular wall thickening, 100 μg of the H7 (CS) hIgG1 (DF) (H7-2) antibody, the H7 (CS) hIgG1 (N297A) (H7-4) antibody, an anti-IL-5 antibody (ligand-neutralizing antibody, clone name: TRFK5), the anti-DNP antibody KM8808, the anti-DNP antibody KM6161, or rat IgG (clone name: HRPN) was intraperitoneally administered to each IL-5^+/+ mouse a total of five times (3 consecutive days (three times) from two days before the first rIL-33 administration day (day 0), once on the second rIL-33 administration day (day 7), and once on the third rIL-33 administration day (day 14)) (FIG. 15). Then, on day 21, lung tissues were resected and evaluated by FCM and immunofluorescent staining.
In the immunofluorescent staining, the tissues were sliced into 30 μm, and slides were prepared and then stained with an Alexa 488-conjugated anti-SMA antibody (1A4) (manufactured by Abcam plc) and an Alexa 647-conjugated anti-Siglec-F antibody (E50-2440). The nuclei of the cells were stained with Hoechst 33342 (manufactured by Life Technologies Corp.). Here, the degree of the growth of SMA-positive cells (primary media-constituting cells) was observed.

[3] = system: eosinophils (CD45-positive, Gr1-negative, Siglec-F-positive cells); assay: IL-33-induced increase of lung eosinophils, FCM of lung cell suspension; assay type: in vivo, mouse; details: IL-5+/+ mice, 100 μg antibody i.p. five times
Experimental: as §1
In the FCM, 1×10^6 cells in the lung cell suspension were stained with a PE-Cy7-conjugated anti-CD45 antibody (30-F11), an APC-conjugated anti-Gr1 antibody (RB6-8C5), and a PE-conjugated anti-Siglec-F antibody (E50-2440) (all manufactured by BD Biosciences). CD45-positive, Gr1-negative, and Siglec-F-positive cells were regarded as eosinophils, and the influence of antibody administration was observed.

[4] = system: mouse IL-5Rα-expressing cell Y16; assay: Antigen binding activity of chimeric antibodies on Y16 cells by FCM; assay type: cell-based; details: FIG. 12
Experimental: The chimeric antibodies prepared in Example 8 were evaluated for their antigen binding activity using a mouse-derived cell line Y16 expressing IL-5R. The Y16 cells were washed with SM (staining medium containing 2% FCS, 0.05% NaN3, and 1 mM EDTA in PBS). Then, Mouse BD Fc Block (manufactured by Becton, Dickinson and Company) was added thereto at a concentration of 5 μg/mL, and the mixture was left standing at 4° C. for 30 min. The cells were inoculated at a cell number of 1×10^5 cells/well to a 96-well U-bottom plate, and each chimeric antibody adjusted to a final concentration of 10000, 2500, 625, 156, 39, 10, 2.4, or 0.6 ng/mL was added thereto, followed by reaction at 4° C. for 60 min. The rat/human chimeric control antibodies used were rtDNP-1 hIgG1 (DF) antibody (KM8808) and rtDNP-1 hIgG1 (N297A) antibody (KM6161). The nucleotide sequences and amino acid sequences of the variable regions of each isotype control antibody are shown in SEQ ID NOs: 29 to 34. After washing of the cells with SM, Goat F(ab′)2 Anti-Human IgG PE (γ chain specific) (manufactured by Southern Biotech) diluted 500-fold with SM was added thereto, followed by reaction at 4° C. for 60 min. After washing of the cells with SM, the cells were resuspended in 50 μL of SM. Fluorescence intensity was measured by FCM (flow cytometer FACS Canto II (manufactured by Becton, Dickinson and Company)). The data was analyzed using FlowJo 7.65 (manufactured by Tomy Digital Biology Co., Ltd.) to calculate a Geomean value at each concentration.

Y16 cells [5] = assay: IL-5 signal inhibition: rIL-5-dependent Y16 growth inhibition (WST-1); assay type: cell-based, mouse; details: rIL-5 5 units/mL, 24 hours
Experimental: Whether or not the various recombinant chimeric antibodies prepared in Example 8 would have the function of inhibiting IL-5 signals was studied by using Y16 growth inhibition as an index. 2×10^3 Y16 cells were cultured for 24 hours in the presence or absence of rIL-5 (5 units/mL) after addition of the Cys substitution-containing core fucose-unlinked H7 recombinant chimeric antibody H7 (CS) hIgG1 (DF) (H7-2), the N-linked sugar chain-deficient H7 recombinant chimeric antibody H7 (CS) hIgG1 (N297A) (H7-4), and the anti-DNP antibodies KM8808 and KM6161 at a concentration of 0.01, 0.1, 1, or 10 μg/mL. 24 hours later, these antibodies were evaluated for their ability to inhibit growth using Premix WST-1 Cell Proliferation Assay System (manufactured by Takara Bio Inc.). The culture time after addition of the reagent of the cell growth assay kit was set to 1 hour.

mouse FcγRIIb = molecular target: T1, mouse FcγRIIb; assay: Biacore steady state affinity for mouse FcγRIIb; assay type: binding; details: Biacore T-200, Steady State Affinity mode
Experimental: (§2) The various H7 chimeric antibodies prepared in Example 8 and the parent antibody H7 rat IgG2a-type antibody were evaluated for their affinity for mouse FcγR using Biacore T-200 (manufactured by GE Healthcare Japan Corp.). An anti-tetra His mouse antibody (manufactured by Qiagen N.V.) was immobilized with 8000 RU as a guideline onto CM5 sensor chip using an amine coupling kit (all manufactured by GE Healthcare Japan Corp.). The coupling buffer used was 10 mM sodium acetate (pH 4.5). His tag-fused mouse FcγRI, IIb, III, and IV proteins (all manufactured by R&D Systems, Inc.) each dissolved at 2 μg/mL in HBS-EP(+) were captured as ligands at 2 μL/min for 30 sec. Then, each antibody serially diluted into concentrations of […] was added thereto as an analyte by the multicycle method. The flow rate was 5 μL/min, and the contact time and the dissociation time were both set to a condition of 240 sec. The analysis was carried out using Biacore T200 Evaluation software on the Steady State Affinity mode. A rise in binding activity against FcγRI and FcγRIV involved in in vivo mouse effector activity was observed by the alteration of the H7 constant region from rat IgG2a type to hIgG1 type.

mouse FcγRIII = molecular target: T2, mouse FcγRIII; assay: Biacore steady state affinity for mouse FcγRIII; assay type: binding; details: Biacore T-200, Steady State Affinity mode
Experimental: as §2

mouse FcγRIV = molecular target: T3, mouse FcγRIV; assay: Biacore steady state affinity for mouse FcγRIV; assay type: binding; details: Biacore T-200, Steady State Affinity mode
Experimental: as §2

mouse FcγRI = molecular target: T4, mouse FcγRI; assay: Biacore steady state affinity for mouse FcγRI; assay type: binding; details: Biacore T-200, Steady State Affinity mode
Experimental: as §2

Row | Molecule | ADCC activity against Y16 cells (Y16 cells [1]) | inhibition of IL-33-induced vascular wall thickening (immunofluorescent staining) [2] | inhibition of IL-33-induced increase in the number of eosinophils ([3]; FCM day 21, FIG. 16) | abundance ratio of eosinophils, in absence of IL-33 (PBS) ([3]; PBS instead of IL-33, lung cells day 21, FCM) | abundance ratio of eosinophils, in presence of IL-33 ([3]; rIL-33 days 0, 7, 14, lung cells day 21, FCM) | binding ability to Y16 cells, H7-1 and H7-2 compared [4] | Y16 growth inhibiting ability, H7-2 and H7-4 compared (Y16 cells [5]) | inhibition of Y16 cell growth (IL-5 signal-inhibiting function) (Y16 cells [5]; antibody 0.01-10 μg/mL, FIG. 14) | Affinity KD for mouse FcγRIIb (mouse FcγRIIb) | Affinity KD for mouse FcγRIII (mouse FcγRIII) | Affinity KD for mouse FcγRIV (mouse FcγRIV) | Affinity KD for mouse FcγRI (mouse FcγRI)
1 | H7-2: core fucose-deficient H7 chimeric antibody, human IgG1, with Cys at VL position 87 replaced with Ser (antibody, V domains shown) VH: EVQLQQSGAELGKPGTSVKLSCKVSGYNIKNTYIHWVNQRPGKGLEWIGRIDPANGNPIYAEKFKNKATLTADTSSNTAYMQLSQLKSDDTAIYFCAMHRGHSMGPGPYVMDAWGQGASVTVSS VL: DIQMTQSPASLSASLGETVTIECRTSEDIYNGLAWYQQKPGKSPQLLIYNANSLHTGVPSRFSGSGSGTQYSLKINSLQSEDVASYSCQQYSNYPFTFGSGTKLEIK | exhibited antibody concentration-dependent ADCC activity | inhibited most strongly; also recorded: vascular wall thickening inhibitory effect superior to H7-4 or the IL-5 ligand-neutralizing antibody | inhibited almost completely; also recorded: superior in eosinophil growth-inhibiting function | 0.24% | 1.58% | slight rise in binding ability | equivalent inhibiting ability | inhibited the growth of the Y16 cells in an antibody concentration-dependent manner | – | – | – | –
2 | H7 ratIgG2a: parent anti-IL-5R rat monoclonal antibody H7, rat IgG2a type (Hitoshi et al.) (antibody, V domains shown) VH: EVQLQQSGAELGKPGTSVKLSCKVSGYNIKNTYIHWVNQRPGKGLEWIGRIDPANGNPIYAEKFKNKATLTADTSSNTAYMQLSQLKSDDTAIYFCAMHRGHSMGPGPYVMDAWGQGASVTVSS VL: DIQMTQSPASLSASLGETVTIECRTSEDIYNGLAWYQQKPGKSPQLLIYNANSLHTGVPSRFSGSGSGTQYSLKINSLQSEDVASYCCQQYSNYPFTFGSGTKLEIK | – | – | – | – | – | – | – | – | no binding | no binding | very weak | very weak

Source: patent US10479836B2, “Method for treating pulmonary hypertension with interleukin-5 receptor antibody” (University of Toyama, priority 2015, dated 2019)
